The experiment has as its target T1, Rae1 (NTE-deleted), chain of the crystallized heterotrimer (mouse, UniProt Q8C570 24-368).
T1 sequence (looked up): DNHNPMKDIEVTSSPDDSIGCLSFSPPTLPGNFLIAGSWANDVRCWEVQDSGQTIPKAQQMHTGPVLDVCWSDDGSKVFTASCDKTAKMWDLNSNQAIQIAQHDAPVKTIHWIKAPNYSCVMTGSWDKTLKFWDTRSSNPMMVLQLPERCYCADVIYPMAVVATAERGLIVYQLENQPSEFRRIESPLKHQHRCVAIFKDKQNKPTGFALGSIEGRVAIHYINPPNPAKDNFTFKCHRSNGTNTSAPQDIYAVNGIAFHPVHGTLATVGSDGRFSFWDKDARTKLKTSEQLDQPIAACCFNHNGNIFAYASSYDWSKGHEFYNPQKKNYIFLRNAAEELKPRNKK
Description: crystal structure.

B1: Nup98 GLEBS region, chain of the crystallized heterotrimer (domain or fragment)
chain: not shown
B1: the binding result was “binds”.

(Values after paper PMC7604486 (Proceedings of the National Academy of Sciences of the …, 2020).)
